Laboratory results as given in PMC4673497.

T1: His-FLP (FOUR LIPS, MYB124) (UniProt Q94FL6 1-436)
T1 sequence: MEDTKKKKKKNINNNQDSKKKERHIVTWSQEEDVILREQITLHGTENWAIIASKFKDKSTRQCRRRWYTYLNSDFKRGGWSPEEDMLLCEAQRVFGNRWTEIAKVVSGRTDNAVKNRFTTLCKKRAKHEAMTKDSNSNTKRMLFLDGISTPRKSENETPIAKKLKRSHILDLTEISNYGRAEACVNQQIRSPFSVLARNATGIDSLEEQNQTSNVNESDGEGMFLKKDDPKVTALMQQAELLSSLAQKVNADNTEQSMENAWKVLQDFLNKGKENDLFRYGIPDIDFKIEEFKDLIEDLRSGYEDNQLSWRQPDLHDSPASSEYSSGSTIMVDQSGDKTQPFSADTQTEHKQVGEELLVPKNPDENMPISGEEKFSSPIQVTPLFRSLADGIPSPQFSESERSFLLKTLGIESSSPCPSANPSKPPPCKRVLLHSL

T2: His-MYB88 (UniProt F4IRB4 1-484)
T2 sequence: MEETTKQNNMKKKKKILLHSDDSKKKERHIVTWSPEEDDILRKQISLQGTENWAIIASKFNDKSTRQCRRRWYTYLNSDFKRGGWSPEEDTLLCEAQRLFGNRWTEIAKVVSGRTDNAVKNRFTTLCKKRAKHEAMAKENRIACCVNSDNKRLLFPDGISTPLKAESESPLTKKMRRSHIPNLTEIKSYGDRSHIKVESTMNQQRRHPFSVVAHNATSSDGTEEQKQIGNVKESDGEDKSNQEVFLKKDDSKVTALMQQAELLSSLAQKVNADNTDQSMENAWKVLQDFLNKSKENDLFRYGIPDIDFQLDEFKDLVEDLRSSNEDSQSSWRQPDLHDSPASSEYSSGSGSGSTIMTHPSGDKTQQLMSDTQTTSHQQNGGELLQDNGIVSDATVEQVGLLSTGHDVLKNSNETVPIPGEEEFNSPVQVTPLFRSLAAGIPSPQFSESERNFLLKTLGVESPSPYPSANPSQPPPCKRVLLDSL


What was measured:
[1] = biological target: T1, His-FLP (FOUR LIPS, MYB124); assay: EMSA; 1x binding buffer (LightShift kit), 2.5% glycerol, 50 mM KCl, 5 mM MgCl2, 0.05% NP-40, 10 mM EDTA, room temperature, 20 min; pH not stated
His-MYB88 = biological target: T2, His-MYB88; assay: as above

Row | Binder | binding result [1] | binding result (His-MYB88)
1 | Probe-1007 (dsDNA) DNA 1: CATAAGGTATTCTTTTACACTAATACTTTCCCGACAACAACAACGAAAAACTCCAACCT DNA 2: AGGTTGGAGTTTTTCGTTGTTGTTGTCGGGAAAGTATTAGTGTAAAAGAATACCTTATG | no binding | –
2 | Probe-863 (dsDNA) DNA 1: AAGATATTAGTTTTTAATTTAGTAATATACCCATATGTTTAATATTGATATCGATATTG DNA 2: CAATATCGATATCAATATTAAACATATGGGTATATTACTAAATTAAAAACTAATATCTT | no binding | –
3 | Probe-1080 (neighbour element -1086 replaced with A) (dsDNA) DNA 1: CTTCTAGGAAAAAACAATTCTTGAAAAAATCGCGGAAAGATCTTGATAACATTGTGACT DNA 2: AGTCACAATGTTATCAAGATCTTTCCGCGATTTTTTCAAGAATTGTTTTTTCCTAGAAG | binds | –
4 | Probe-902 (dsDNA) DNA 1: TATTTAACTATTGCTTTTTTGATTATTAGCCGGGGTACCAAGATATTAGTTTTTAATTT DNA 2: AAATTAAAAACTAATATCTTGGTACCCCGGCTAATAATCAAAAAAGCAATAGTTAAATA | binds | binds
5 | Probe-1392 (neighbour element -1386 replaced with A) (dsDNA) DNA 1: AATGTGTAATTGTCAAGAGGGATAAACCGAAAAAAATGAATCGAAGAAGCAATTGCTTT DNA 2: AAAGCAATTGCTTCTTCGATTCATTTTTTTCGGTTTATCCCTCTTGACAATTACACATT | binds | binds
6 | Probe-473 (dsDNA) DNA 1: TTATGTGTATGTTGTTATCTACAATATGTCCGTTTCAATCAGTCGAACAAAAAATACTA DNA 2: TAGTATTTTTTGTTCGACTGATTGAAACGGACATATTGTAGATAACAACATACACATAA | no binding | –
7 | Probe-1386 (neighbour element -1392 replaced with A) (dsDNA) DNA 1: AATGTGTAATTGTCAAGAGGGATAAAAAAACGCGGATGAATCGAAGAAGCAATTGCTTT DNA 2: AAAGCAATTGCTTCTTCGATTCATCCGCGTTTTTTTATCCCTCTTGACAATTACACATT | binds | binds
8 | Probe-1086 (neighbour element -1080 replaced with A) (dsDNA) DNA 1: CTTCTAGGAAAAAACAATTCTTGATACGGTAAAAAAAAGATCTTGATAACATTGTGACT DNA 2: AGTCACAATGTTATCAAGATCTTTTTTTTACCGTATCAAGAATTGTTTTTTCCTAGAAG | binds | –
